Assay results as given in the supplement of paper PMC9170038.

System: MS2 coat protein
Assay: apparent KD of MS2 coat protein; designed switch direction (-1 OFF switch, 1 ON switch): -1; higher = weaker reporter binding
Summary of the method: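 Transcription of designed RNA switches on Illumina chips was done by stalled E. coli RNA polymerase. SNAP-549-labelled MS2 coat protein was then titrated in doubling steps from 0.7 or 1.5 nM to 3 µM, with steps of 0.8–1.5 h at the lowest and 10–20 min at the highest concentration. The per-design median over clusters of curve-fitted normalised fluorescence is reported as apparent KD.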

[1] = input ligand: microRNA oligo, concentration not stated
[2] = Eterna round: R95, input ligand: FMN 200 uM
[3] = Eterna round: R95, input ligand: microRNA oligo, concentration not stated
[4] = Eterna round: R95, input ligand: none

Row | Sequence | apparent KD of MS2 coat protein (input ligand: FMN 200 uM) [nM] | apparent KD of MS2 coat protein [1] [nM] | apparent KD of MS2 coat protein (input ligand: none) [nM] | apparent KD of MS2 coat protein [2] [nM] | apparent KD of MS2 coat protein [3] [nM] | apparent KD of MS2 coat protein [4] [nM]
1 | GCAGCUAGUUCAGGAUAUCAGCACGUUUAGUGCUGAGAAGGGAACAUGAGGAUCACCCAUGUGAUCAAUGCUGCAAUUUUAAUU [ENG1/12-A2] (Eterna round: R96, puzzle: Exclusion NG 1) | 1470 | 776 | 717 | – | – | –
2 | AAAUCGGAGGAGGAUAUUGUACAGGAAACGGUGCGAGAAGGUUUCACAUGAGGAUCACCCAUGUCAAAUAGCGA [EX6 #57] (Eterna round: R97, puzzle: Exclusion 6) | 21.3 | – | 21.2 | – | – | –
3 | CUUUAGUGAGGAUAUUAGUAGUAAUACAAUAGUAUUACUACUGAGAAGGCACAUGAGGAUCACCCAUGUUCCUC [Mat - Exclusion 4 - Mod of Omei - D79] (Eterna round: R96, puzzle: Exclusion 4) | 303 | 25 | 28.5 | – | – | –
4 | AGUGCUAACACGAAAGUGUUAGUACAAUAAGCUUGUGAAACAUGAGGAUCACCCAUGUCCUCAUAAGCUCGUCUUAU [salish99_TOv2_r3_014] (puzzle: Sensor v3, turn-off variant 2) | – | – | – | 17.8 | 651 | 17.7
5 | AAAAAGCUAGGAUAUACAUGAGGAUCACCCAUGUGAGGGCACCGCGGGCGCGGGACCGGUAGAAGGAGCAAAAA [Exc;s3-III] (puzzle: Exclusion 3) | – | – | – | 23.5 | 24.9 | 29.1
6 | GCCGGAGCAGGAUAUCUAAUAUAUCACAUGAGGAUCACCCAUGUCCAGCGAAAGCUGGAGGGAGAAGGGCUCUGGC [Fiskers Ex 5 - 22] (Eterna round: R96, puzzle: Exclusion 5) | 47 | 99.1 | 143 | – | – | –
7 | GGUCUACAUGAGGAUCACCCAUGUAAGGAUAUCGUCACUGGAGCUGCGGCUCCAGUGACGAGAAGGUACGUAAU [E1/12-A3] (Eterna round: R97, puzzle: Exclusion 1) | 33.7 | – | 32.4 | – | – | –
8 | UGAAAGUGAGGAUAUGGUGAGUAGUGCCUGAGCGCUGCUCACCAGAAGGCACAUGAGGAUCACCCAUGUAAAUG [Mat - Exclusion 4 - Mod of JL - D20] (puzzle: Exclusion 4) | – | – | – | – | 38.9 | –
9 | AUUUAAUUUAGCGAGAUCACAUGAGGAUCACCCAUGUAUAUAUAGGAUAUCAGCUCGUUUAGAGCUGAGAAGGAUAUAUACCGC [ExNG3/7-A2] (Eterna round: R96, puzzle: Exclusion NG 3) | – | 74 | – | – | – | –
10 | UCGUGAUUAGAGGAUAUAUUUUGAGUCAGAACAAUAGAAGGCUAAACAUGAGGAUCACCCAUGUAAAUGUGUAA [JR_Ex6_Sub061] (Eterna round: R97, puzzle: Exclusion 6) | 184 | – | 34.9 | – | – | –
11 | UGAUCACAUGAGGAUCACCCAUGUCAGGAUAUCGUCACUGGAGCUUCGGCUCCAGUGACGAGAAGGGACAUAAU [E1/3-A1] (Eterna round: R97, puzzle: Exclusion 1) | 77.4 | – | 141 | – | – | –
12 | CUGUGAUGAGGAUAUACAUGAGGAUCACCCAUGUGUCCUCUGAUGGGUAGGGACCCUGGUAGAAGGCAUUGAGA [Eternabot (L1) Solution 52] (Eterna round: R97, puzzle: Exclusion 3) | 19.2 | – | 15.5 | – | – | –
13 | CUUUUGUGAGGAUAUUAGUUGUAAAUAAAUAAAAUUACUACUGAGAAGGCACAUGAGGAUCACCCAUGUUCCUC [salish99_ex4_r3_049] (puzzle: Exclusion 4) | – | – | – | – | 33.2 | –
14 | UCCUUAUCGGUCAGGAUAUACACCCGUUUCUCCUUGUAGAAGGGACAUGAGGAUCACCCAUGUACAGUACAUUU [alecazam66] (Eterna round: R97, puzzle: Brourd's mod of Exclusion 4) | 29.6 | – | 26.8 | – | – | –
15 | GAGGUGUUAGGAUAUCGGAGAUGGAGACCGACGGGAUGAGCCGAGAAGGAACAUGAGGAUCACCCAUGUAGGUG [JR_Exclu4_Sub033] (puzzle: Exclusion 4) | – | – | – | – | 386 | –
16 | GUUUAGUGAGGAUAUGUGGCUUCGAUCGUGCGAAGGAGGCUACAGAAGGCACAUGAGGAUCACCCAUGUUCCUC [salish99_ex4_r4_302] (Eterna round: R97, puzzle: Exclusion 4) | 401 | – | 37.1 | – | – | –
17 | UAAACUUGCUUCCGAUCCUACAUGAGGAUCACCCAUGUGCUCGUCUUGUAUCGUACUGUGACGUUAGUCACGGUACG [mod my first] (Eterna round: R97, puzzle: Sensor, turn-off variant 1) | 477 | – | 464 | – | – | –

Row | Sequence | apparent KD of MS2 coat protein (input ligand: FMN 200 uM) [nM] | apparent KD of MS2 coat protein [1] [nM] | apparent KD of MS2 coat protein (input ligand: none) [nM] | apparent KD of MS2 coat protein [2] [nM] | apparent KD of MS2 coat protein [3] [nM] | apparent KD of MS2 coat protein [4] [nM]
18 | GCGCAAAGCUAGGAUAUCCAGGGAUCUUCCCGCGGAGAAGGAGCCACAUGAGGAUCACCCAUGUGGUGAUCCUG [eternacac ex6r4 sub7] (Eterna round: R97, puzzle: Exclusion 6) | 14.9 | – | 15.4 | – | – | –
19 | UAUUAGCAAGCAAGAUCCCACAUGAGGAUCACCCAUGUGCUCGUCUUAAUUCCAGAAUUACUGGGCUCUCGUCUUAU [JR_STOV1_Sub090] (Eterna round: R97, puzzle: Sensor, turn-off variant 1) | 41 | – | 40.6 | – | – | –
20 | GUGAGUAGUCAGGAUAUGCUGUACAAAAGUACAGCAGAAGGGAUUACAUGAGGAUCACCCAUGUUUACUUCGUG [Omei Ex6 B3] (Eterna round: R97, puzzle: Exclusion 6) | 105 | – | 29.7 | – | – | –
21 | UUAUAAAGUGUGAGGAUAUGCUGGUCGAUAGAUCAGCAGAAGGCACAUGAGGAUCACCCAUGUAAUAUAUUUUA [Mat - Exclusion 4 - JL Mod - D45] (puzzle: Brourd's mod of Exclusion 4) | – | – | – | – | 50 | –
22 | AUCUGCACGCUGCGGUCCUACAUGAGGAUCACCCAUGUGGUCUGGUGGCGUGGGUCGCCGGACUUGGCUCGUCUUGA [salish99_S_TOV1_R5_043] (Eterna round: R97, puzzle: Sensor, turn-off variant 1) | 18.1 | – | 18.1 | – | – | –
23 | UUUAAUUUUUUUUUUUUACAAGCUUUUUGCUCGUCUUAUACAUGAGGAUCACCCAUGUAGAUGGGAGAUAAAUUAUC [JMF 20] (puzzle: Sensor v3, turn-off variant 2) | – | – | – | 33.8 | 85.3 | 40.5
24 | UGUGGAGCUUAGGAUAUUGCUCUACCAAGAGGGCGAGAAGGGAGCACAUGAGGAUCACCCAUGUGGUCCGGAAC [Edoroner] (puzzle: Exclusion 6) | – | – | – | 26 | 14.7 | 14.6
25 | AGCUGUGGCCGAGGAUAUACAUGAGGAUCACCCAUGUUACAUAAUUCGACAUGAGAAUACGAACCGUAGAAGGCGGUCUCAGCA [Eli eng2 - 002] (Eterna round: R96, puzzle: Exclusion NG 2) | 127 | 37.8 | 66.1 | – | – | –
26 | CCUCGACGGUAGGAUAUCGUCAAACUAUUGUGAUGAGAAGGACUGACAUGAGGAUCACCCAUGUUAACGUGAUG [Exclusion 6 - 7:a] (puzzle: Exclusion 6) | – | – | – | – | 14.8 | –
27 | CAGUACUGAGGAUAUACAUGAGGAUCACCCAUGUGCUUUAGCUAGGAUACUAGCACCAGUAGAAGGCAGUACUG [Fiskers Ex 3 828 mod 12] (puzzle: Exclusion 3) | – | – | – | – | 10.7 | –
28 | GGCGGGACAGGAUAUCUAGCACUAAACAUGAGGAUCACCCAUGUGGUGGUCGCAGGUGUCAGAGAAGGGUCAAAAG [Atenabe] (puzzle: Exclusion 5) | – | – | – | 193 | 616 | 1480
29 | AAGAUGCGCGCAGGAUAUGGAGAGAAAGAAAGACCAGAAGGGCGGGUCACACAACAUGAGGAUCACCCAUGUGUGUGUUGCGAA [snuffleupagus] (Eterna round: R96, puzzle: Exclusion NG 1) | 9.29 | 9.54 | 12.2 | – | – | –
30 | ACAUGAGGAUCACCCAUGUGCACGUAAUGGCUCAUGUAGAGUGAGGAUAUGCGUGACGAACGAGCGCAGAAGGCACAAGACUGG [Deportation 16 - Jieux - Exclusion NG 3] (Eterna round: R96, puzzle: Exclusion NG 3) | 131 | 57.8 | 77.5 | – | – | –
31 | UAUUAGCAAGUAAGAUCCCACAUGAGGAUCACCCAUGUGCUCGUCAUAUAACGUACUGUGAGGAAACUCACGGUACG [Sensor-V1 #84] (Eterna round: R97, puzzle: Sensor, turn-off variant 1) | 85 | – | 103 | – | – | –
32 | GUGAUGUAGCACAAUAAGUUUUUUGCCGUCUUAGGUCCAACAUGAGGAUCACCCAUGUACGUCUACAUGCACUUUAA [Veveuslabe] (puzzle: Sensor v3, turn-off variant 2) | – | – | – | 66.4 | 197 | 81.2
33 | CUGAGCAGACGGAGAUCCAACAUGAGGAUCACCCAUGUCUCAUAAGCUUUUUGCUCAUCUUAUUGUACCUUGGUGCA [Mat - Sensor v3 - turn-off var 1 - JL Mod - D21] (puzzle: Sensor v3, turn-off variant 1) | – | – | – | 426 | 15.6 | 290
34 | GGUACUCAAAGAGUACCAAUACGAACAUGAGGAUCACCCAUGUAGGAUAUGCUACUCAAAGAGUAGCAGAAGGAUAUGAACCCU [Far Half Aptamer v8] (Eterna round: R96, puzzle: Exclusion NG 3) | 33.1 | 16.8 | 26.3 | – | – | –
